± gives the standard deviation of the averaged measurements.
system: Saccharomyces cerevisiae; experiment: protein stability index of tFT-peptide fusion (C-terminal peptide) (PSI (0-1 scale)); higher = more stable (slower turnover); conditions: genetic background: wild type; temperature: 30 C
Procedure: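 Multiplexed protein stability (MPS) profiling in S. cerevisiae. Random 12-aa peptides (tFT-X12 library) are fused to the C-terminus of a sfGFP-mCherry tandem fluorescent timer, after mCherry and a GGGS linker. Cells are FACS-sorted into 8 mCherry/sfGFP bins and deep-sequenced. The protein stability index (PSI) is the read-weighted bin average, scaled from 0 (unstable) to 1 (stable). Only peptides with >10 reads are reported; cells were grown at 30 °C in SC-His with glucose.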
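Further: PSI is a weighted mean of sequencing reads over stability bins, variants kept only with over 10 reads, mCherry proximal and sfGFP distal, peptide attached via GGGS linker.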

Sequence | protein stability index
EKRDRKKNPRGS | 0.744 ± 0.1
EKSEKSRGNRYV | 0.72 ± 0.076
EKTKEHRNDSQR | 0.695 ± 0.014
EKVGVTVLLRHV | 0.679 ± 0.038
ELGARGGRGGGR | 0.739 ± 0.038
ELGGRGPGGWVG | 0.7149 ± 0.0041
ELGLGGCGGLGV | 0.7 ± 0.03
ELGSIYDGWARA | 0.691 ± 0.011
ELKGRQLGSNLK | 0.691 ± 0.045
ELKKKYNEKKRI | 0.6885 ± 0.002
ELKVVVTPLVPS | 0.588 ± 0.053
EMGGLKACWGVG | 0.572 ± 0.022
EMPQNSKKNQAA | 0.672 ± 0.06
EMRAGNWWGREG | 0.728 ± 0.054
ENKGKKITITNE | 0.625 ± 0.018
ENPIASQWVRRY | 0.6737 ± 0.0039
ENQGEKKKKKKR | 0.703 ± 0.022
ENRERVVENLRD | 0.715 ± 0.04
ENRGSGLQACGA | 0.716 ± 0.1
EPASLTVFEGTS | 0.587 ± 0.022
EPPGWGRGTAQG | 0.623 ± 0.07
EPPQPPSLPPLF | 0.739 ± 0.0085
EQFQLCAREVAK | 0.761 ± 0.047
EQICNCKIIMVE | 0.5669 ± 0.003
EQVTCGGIRVGQ | 0.656 ± 0.086

Sequence | protein stability index
ERCLRYRTVVDW | 0.632 ± 0.063
ERGACPGLRQLN | 0.649 ± 0.015
ERGLATGRGGWV | 0.733 ± 0.064
ERGSRKKKDRRR | 0.639 ± 0.01
ERIGAREQPSAT | 0.7075 ± 0.0056
ERKKKNPSTTRR | 0.684 ± 0.0086
ERNEERKATTRS | 0.726 ± 0.067
ERNKQNVTQKVK | 0.723 ± 0.028
ERPIRPQCVHRM | 0.73 ± 0.015
ERPRRDTTVSDT | 0.653 ± 0.0083
ERQSMNKRERNP | 0.683 ± 0.023
ERRKQDERKRRV | 0.7059 ± 0.00075
ERRSGGHCRKSG | 0.685 ± 0.036
ERTKKKRRKEKH | 0.663 ± 0.011
ERVWRAALAPVV | 0.618 ± 0.045
ERWGGSGGGCAA | 0.67 ± 0.051
ESFFHIKPVLYI | 0.647 ± 0.058
ESFGGKAGRDSM | 0.772 ± 0.049
ESFLLSLNLLSY | 0.6155 ± 0.0037
ESNRHSHVVGPA | 0.683 ± 0.013
ESSPQPIPSRLA | 0.707 ± 0.016
ESYRTYNSIQVY | 0.518 ± 0.015
ETNSSSEFPLNF | 0.755 ± 0.0089
ETRIRGVMPRAY | 0.659 ± 0.014
ETWRRIDRLFGS | 0.619 ± 0.058

Sequence | protein stability index
EVAVELIGAPGL | 0.699 ± 0.1
EVDRRRSVITLP | 0.668 ± 0.033
EVEGGLSFSARG | 0.706 ± 0.074
EVEINGRLVGKM | 0.646 ± 0.097
EVKDDSKVVVYV | 0.666 ± 0.022
EVKERGRGCREG | 0.659 ± 0.03
EVRRGVGGAWEG | 0.648 ± 0.011
EVSGGNRYWCGV | 0.719 ± 0.022
EVSHLGLVCGHL | 0.653 ± 0.081
EVSSGGQRVGRS | 0.763 ± 0.018
EVWGSVETSCAS | 0.739 ± 0.17
EWGRSGVRCRLG | 0.571 ± 0.052
EWRWPTELNRKG | 0.75 ± 0.051
EYAVLLFPHHPG | 0.623 ± 0.041
EYGSWIRTASRV | 0.726 ± 0.016
EYKKKKTKANDT | 0.6944 ± 0.0015
EYRPPVPPPFPP | 0.579 ± 0.033
FAAGIMWQSGLK | 0.657 ± 0.019
FAEWVRFWPGLV | 0.6682 ± 0.0064
FAHRVVCFCVFS | 0.505 ± 0.038
FALAVPLDPWSS | 0.737 ± 0.065
FAQRRGPAALNI | 0.70492 ± 0.00052
FARELGNLNVEK | 0.761 ± 0.056
FASPPPLPLPPH | 0.694 ± 0.02
FCFHPLTGKLSG | 0.6536 ± 0.0029

Sequence | protein stability index
FCFRFISCPLHF | 0.549 ± 0.047
FCGLVIRFSEKV | 0.653 ± 0.017
FCLFTYIPSSCL | 0.664 ± 0.035
FCLGSFMFEGGR | 0.723 ± 0.032
FCPPLSFPPPLS | 0.718 ± 0.13
FCRCNYLYRIPK | 0.6615 ± 0.0026
FCRVCLAFLSGL | 0.781 ± 0.22
FCRYSRAWKDFV | 0.737 ± 0.087
FCSLLLFRFVVL | 0.517 ± 0.015
FCSPLPSSPPLP | 0.658 ± 0.028
FCSRVGFVFLRL | 0.489 ± 0.024
FCSSVSFPPAPL | 0.642 ± 0.035
FDFFLPFLCSSL | 0.827 ± 0.2
FDMYACCQRGAV | 0.6639 ± 0.0027
FDRWEDCKGTRD | 0.71 ± 0.013
FFCLVPLALPRF | 0.649 ± 0.019
FFFGPPPCRSFF | 0.731 ± 0.019
FFFPSPPPPSLV | 0.749 ± 0.05
FFLRSPLFPCSH | 0.72173 ± 0.00052
FFMWDLLFLSLD | 0.669 ± 0.011
FFPATVGPFSFP | 0.731 ± 0.015
FFPQPTPVSISR | 0.8264 ± 0.0039
FFPSSPFLPPPR | 0.657 ± 0.1
